Assay results reported in patent publication CN114146174A (HEADA BIOPHARMACEUTICAL SUZHOU CO LTD, dated 2022).

Experiments:
人OX40抗原(购自Sino) = biological target: T1, 人OX40抗原(购自Sino) (human, UniProt P43489 29-216, limits assumed); test: direct ELISA on coated human OX40 antigen; relative binding activity after 1 month at 40℃±2℃, pH 5.0-7.0 samples
T1 construct: Bought antigen coated on the ELISA plate; also called human OX40; CD134
T1 sequence (looked up): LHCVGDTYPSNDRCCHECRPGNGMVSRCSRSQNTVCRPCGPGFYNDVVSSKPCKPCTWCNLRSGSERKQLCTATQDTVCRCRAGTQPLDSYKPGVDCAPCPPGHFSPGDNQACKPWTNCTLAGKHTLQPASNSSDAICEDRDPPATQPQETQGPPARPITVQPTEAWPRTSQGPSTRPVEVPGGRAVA

人PD-L1抗原(购自Promega) = biological target: T2, 人PD-L1抗原(购自Promega) (human, UniProt Q9NZQ7 19-238, limits assumed); test: direct ELISA on coated human PD-L1 antigen; relative binding activity after 1 month at 40℃±2℃, pH 5.0-7.0 samples
T2 construct: Bought antigen coated on the ELISA plate; also called human PD-L1; CD274
T2 sequence (Q9NZQ7 19-238 limits assumed): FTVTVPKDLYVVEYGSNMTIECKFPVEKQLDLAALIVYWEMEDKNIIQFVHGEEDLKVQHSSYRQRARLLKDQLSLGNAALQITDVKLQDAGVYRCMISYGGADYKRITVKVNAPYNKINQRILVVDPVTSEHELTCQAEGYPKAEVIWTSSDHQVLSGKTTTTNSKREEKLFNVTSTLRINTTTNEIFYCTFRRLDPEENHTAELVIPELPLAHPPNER

B1: 抗PD-L1/OX40双特异性抗体 (bispecific antibody, human IgG2, kappa)
heavy: QVQLVQSGAEVKKPGASVKVSCKASGYTFTSYYMHWVRQAPGQGLEWMGIINPSGGSTSYAQKFQGRVTMTRDTSTSTVYMELSSLRSEDTAVYYCARDHASSSWYTTHLDLWGRGTLVTVSSASTKGPSVFPLAPCSRSTSESTAALGCLVKDYFPEPVTVSWNSGALTSGVHTFPAVLQSSGLYSLSSVVTVPSSNFGTQTYTCNVDHKPSNTKVDKTVERKCCVECPPCPAPPVAGPSVFLFPPKPKDTLMISRTPEVTCVVVDVSHEDPEVQFNWYVDGVEVHNAKTKPREEQFNSTFRVVSVLTVVHQDWLNGKEYKCKVSNKGLPAPIEKTISKTKGQPREPQVYTLPPSREEMTKNQVSLTCLVKGFYPSDIAVEWESNGQPENNYKTTPPMLDSDGSFFLYSKLTVDKSRWQQGNVFSCSVMHEALHNHYTQKSLSLSPGGGGGSGGGGSQVQLQESGGGLVQPGGSLRLSCAASAYTISRNSMGWFRQAPGKGLEGVAAIESDGSTSYSDSVKGRFTISLDNSKNTLYLEMNSLRAEDTAVYYCAAPKVGLGPRTALGHLAFMTLPALNYWGQGTLVTVSS
light: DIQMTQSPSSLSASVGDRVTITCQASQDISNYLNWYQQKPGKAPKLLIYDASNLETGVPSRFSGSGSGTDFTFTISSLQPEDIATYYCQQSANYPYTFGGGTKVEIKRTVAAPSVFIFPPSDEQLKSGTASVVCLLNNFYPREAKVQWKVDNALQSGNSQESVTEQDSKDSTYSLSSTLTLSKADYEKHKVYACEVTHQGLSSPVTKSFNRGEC
notes: also called 重组抗肿瘤坏死因子受体超家族成员4(OX40)和抗程序性死亡配体1(PD-L1)双特异性抗体; anti-PD-L1/OX40 bispecific antibody
binding result (人OX40抗原(购自Sino)): binds
binding result (人PD-L1抗原(购自Promega)): binds
